Data published in patent publication US20110135636A1 (SYMPHOGEN A S, published 2011).
Positions count from the first letter of the chain named.

B1: antibody 1347 (antibody, human IgG1, kappa, V domains shown)
VH: QVQLKESGPGLVAPSQSLSITCTVSGFSLTGHGVNWVRQPPGKGLEWLGMIWGDGSTDYNSTLKSRLSISKDNSKSQVFLKMNSLQTDDTARYYCARGYGYLYYFDYWGQGTTLTVSS
VL: ENVLTQSPAIMSASPGEKVTMTCRASSSVSSSYLHWYQQKSGASPKLWIYSTSNLASGVPARFSGSGSGTSYSLTVNSVETEDAATYYCHQYSGFPFTFGSGTKLELKR
notes: Chimeric IgG1 kappa
B2: antibody 1344 (antibody, human IgG1, kappa, V domains shown)
VH: QVQLKESGPGLVAPSQSLSITCTVSGFSLTIYGVHWVRQPPGKGLEWLGVIWAGGNTNYNSALMSRLSISKDNSKSQVFLKMNSLQTDDTAMYFCARGYGYNLDYWGQGTTLTVSS
VL: DIQMTQTTSSLSASLGDRVTISCSASQGISNYLNWYQQKPDGTVKLLIYYTSSLHSGVPSRFSGSGSGTDYSLTISNLEPEDIATYYCQQYSKLPYTFGGGTKLEIKR
notes: Chimeric IgG1 kappa
B3: antibody 1308 (antibody, human IgG1, kappa, V domains shown)
VH: EVQLQQSGAELVRPGSSVKISCKASGYAFSSYWMNWVRQRPGQGLEWIGQIYPGDGDTNYNGKFKGRATLTANKSSSTAYMQLSSLTSEDSAVYFCARRASSLYDVYPYYFDYWGQGTTLTVSS
VL: B2 VL with S24R, G28D, L46V, S53R, P80Q, Y87F, Y91G, S92N, K93T
notes: Chimeric IgG1 kappa
B4: antibody 1030 (antibody, human IgG1, kappa, V domains shown)
VH: EVQLVESGGGLVKPGGSLKLSCAASGFTFSSYALSWVRQTPERRLEWVASISGVGSTYFPDSVKGRFTMSRDNARNILYLQMSSLRSEDTAMYYCARGSDGYFYAMDYWGQGTSVTVSS
VL: DIVLTQSPASLAVSLGQRATISCRASKSVSTSGYSFMHWYQLKPGQPPKLLIYLASNLESGVPARFSGSGSGTDFTLNIHPVEEEDAATYYCQHSREFPLTFGGGTKLEIKR
notes: Chimeric IgG1 kappa
B5: antibody 992 (antibody, human IgG1, kappa, V domains shown)
VH: EVQLQQPGSELVRPGASVKLSCKASGYTFTSYWMHWVKQRPGQGLEWIGNIYPGSRSTNYDEKFKSKATLTVDTSSSTAYMQLSSLTSEDSAVYYCTRNGDYYVSSGDAMDYWGQGTSVTVSS
VL: DIQMTQTTSSLSASLGDRVTISCRTSQDIGNYLNWYQQKPDGTVKLLIYYTSRLHSGVPSRFSGSGSGTDFSLTINNVEQEDVATYFCQHYNTVPPTFGGGTKLEIKR
notes: Chimeric mouse/human IgG1 kappa; the VL entry includes the human kappa constant region
B6: antibody 1024 (antibody, human IgG1, kappa, V domains shown)
VH: QVQLQQPGAELVEPGGSVKLSCKASGYTFTSHWMHWVKQRPGQGLEWIGEINPSSGRNNYNEKFKSKATLTVDKSSSTAYMQFSSLTSEDSAVYYCVRYYGYDEAMDYWGQGTSVTVSS
VL: DIVMTQAAFSNPVTLGTSASISCRSSKSLLHSNGITYLYWYLQKPGQSPQLLIYQMSNLASGVPDRFSSSGSGTDFTLRISRVEAEDVGVYYCAQNLELPYTFGGGTKLEIKR
notes: Chimeric IgG1 kappa
B7: antibody 1208 (antibody, human IgG1, kappa, V domains shown)
VH: EVQLVESGGGLVKPGGSLKLSCAASGFAFSSYDMSWVRQTPEKRLEWVAYIGSGDDNTHYPDSVKGRFTISRHNAKNTLYLQMSSLKSEDTAMYYCARQKYGNYGDTMDYWGQGTSVTVSS
VL: DVVMTQTPLSLPVSLGDQASISCRSSQSLVHSNGNTYLHWYLQKPGQSPKLLIYKVSNRFSGVPDRFSGSGSGTDFTLKISRVEAEDLGVYFCSQSTHVPTFGGGTKLEIKR
notes: Chimeric IgG1 kappa; also called clone 1208
B8: antibody 1320 (antibody, human IgG1, kappa, V domains shown)
VH: QVQLQQPGAELVKPGASMKLSCKASGYTFTNYWMHWVKQRPGQGLEWIGEINPSNGRTNYNEKFKSKATLTVDKSSSTAYMQLSSLTSEDSGVYYCAKGGNYYDYDWDYWGQGTTLTVSS
VL: B2 VL with G28D, Y50H, S53T, Y96W
notes: Chimeric IgG1 kappa

Target: T1, EGFRvIII (deletion mutant EGFR) (human, UniProt P00533 25-645, limits assumed)
T1 construct: also called deltaEGFR; rhEGFRvIII
Assay: EGFRvIII ELISA (Example 1)

binding result | Binder
no binding | B1
no binding | B2
no binding | B3

Target: T2, recombinant human EGFR extracellular domain with 6xHis (human, UniProt P00533 25-645)
T2 construct: In-house produced; also called 6xHis EGFR ECD; soluble human EGFR ECD; not shown: 6xHis tag
Assay: SPR competition, competitor 1308
Protocol: (§1) SPR analysis was performed on a Biacore 3000 machine containing four flow cells. A CM5 Biacore chip was conjugated with 10,000 Resonance units (Ru) polyclonal anti-His antibody to flow cells 1-4 according to the manufacturer's instructions. […] Immediately after antigen injection the maximal binding of the Anti-EGFR mAb without competition was established in each flow cell during a reference run. Briefly 5 μl antibody at a concentration of 40 μg/ml was injected over all flow cells with captured EGFR followed by stripping of the antibody/antigen complex with a low pH acid wash (10 sec. contact time with 10 mM Glycine-HCl, pH2). After the determination of Anti-EGFR antibody maximal binding to each flow cell, a competition run was performed during the same Biacore cycle. Flow cells were first saturated with EGFR ECD antigen followed by injection of different reference antibodies or Anti-EGFR antibodies into separate flow cells using the same antigen saturating conditions as outlined above. This step was immediately followed by a second injection of Anti-EGFR antibody over the flow cell saturated with EGFR antigen and competition antibody to minimize the dissociation of either antigen or blocking antibody. Then the antibody/antigen complexes were stripped off with a low pH acid wash (10 sec. contact time with 10 mM Glycine-HCl, pH 2) and the whole cycle beginning with the reference run was repeated with a new Anti-EGFR antibody. The degree of inhibition of tested Anti-EGFR antibodies were determined by comparing the Ru max value of the individual Anti-EGFR antibody before and after competition by introduction of report points recorded two seconds before and after injection of each sample.

% inhibition | Binder
-12% | B4
-9% | B5
-3% | B6
5% | B7
82% | B1
73% | B2
-2% | B8
75% | B3

Target: T2, recombinant human EGFR extracellular …
Assay: SPR competition, competitor 1042
Protocol: as §1

% inhibition | Binder
11% | B4
21% | B5
71% | B6
9% | B7
48% | B8

Target: T3, wild type full length EGFR purified from A431 cells (human, UniProt P00533 25-1210)
T3 construct: mature; Bought; coated on ELISA wells; also called full length EGFR receptor antigen; Sigma E3641
Assay: competition ELISA, competitor ICR10
Parameters: concentration or dose not given beside the values
Protocol: (§2) The ELISA was adapted from the descriptions published in Ditzel et al, 1995, The Journal of Immunology, Vol 154, Issue 2 893-906.
(§3) An epitope blocking ELISA was performed by diluting full length EGFR receptor antigen to 0.5 μg/ml in PBS; and coating 50 μl/ELISA well overnight at 4° C. […] Finally wells were washed four times with PBS-T and plates were developed by adding 50 μl/well TMB and read at 620 nm every 5-15-30 min. The degree of inhibition was calculated from the formula: % inhibition=(1−(OD competition/OD no competition (PBS)))×100.

% inhibition | Binder
12% | B4
-20% | B5
11% | B6
-21% | B7
82% | B2
2% | B8
71% | B3

Target: T3, wild type full length EGFR purified …
Assay: competition ELISA, competitor Ab-2
Parameters: concentration or dose not given beside the values
Protocol: as §2, §3

% inhibition | Binder
-1% | B4
77% | B5
75% | B6
20% | B7
14% | B2
-9% | B8
11% | B3

Target: T4, Cynomolgus EGFR extracellular domain (Cynomolgus monkey (Macaca fascicularis), UniProt P55245 25-645 (rhesus entry))
T4 construct: Cloned without signal peptide; also called Cynomolgus rEGFR ECD; Cynomolgus EGFR ECD
Assay: ELISA on cynomolgus EGFR ECD (Example 10)
Protocol: To verify that tested Anti-EGFR antibodies bound equally well to both Human and Cynomolgus EGFR ECD and accordingly warranting toxicology studies in Cynomolgus monkeys, serial four fold dilutions of antibodies beginning from 1 μg/ml were tested by ELISA for binding to recombinant Human and Cynomolgus EGFR ECD proteins. […] ELISA wells were coated with 50 μl/well of full length EGFR at a concentration of 1 μg/ml in PBS overnight at 4° C. The next morning wells were washed twice with PBS-T and blocked for one hour with 100 μl PBS-T-1% BSA at room temperature, followed by wash twice in PBS-T. Next 50 μl of serially diluted Anti-EGFR antibodies and control antibodies were added to wells and incubated for one hour at room temperature. After antibody incubation wells were washed five times with PBS-T, followed by incubation with 50 μl/well Streptavidin-HRP secondary reagent diluted 1:3000 in blocking buffer and incubation at room temperature for 30 min. Finally wells were washed five times with PBS-T and plates were developed by adding 50 μL/well TMB substrate and incubated at room temperature. After incubation the reaction was stopped by addition of 1 M H₂SO₄; 100 μl/well and plates were read at OD 450 nm.

binding result | Binder
binds | B4
binds | B1
binds | B2
no binding | B8
binds | B3

Target: T3, wild type full length EGFR purified …
Assay: competition ELISA, competitor Ab-1
Parameters: concentration or dose not given beside the values
Protocol: as §2, §3

% inhibition | Binder
91% | B4
78% | B5
3% | B6
82% | B7
19% | B2
9% | B8
4% | B3

Target: T3, wild type full length EGFR purified …
Assay: competition ELISA, competitor Ab-11
Parameters: concentration or dose not given beside the values
Protocol: as §2, §3

% inhibition | Binder
-20% | B4
-2% | B5
18% | B6
-3% | B7
82% | B2
8% | B8
91% | B3

Target: T3, wild type full length EGFR purified …
Assay: competition ELISA, competitor Ab-10
Parameters: concentration or dose not given beside the values
Protocol: as §2, §3

% inhibition | Binder
92% | B4
-14% | B5
27% | B6
89% | B7
36% | B2
7% | B8
12% | B3

Target: T3, wild type full length EGFR purified …
Assay: competition ELISA, competitor Ab-3
Parameters: concentration or dose not given beside the values
Protocol: as §2, §3

% inhibition | Binder
-35% | B4
-21% | B5
11% | B6
-10% | B7
40% | B2
0% | B8
19% | B3

Target: T2, recombinant human EGFR extracellular …
Assay: SPR competition, competitor 1449
Protocol: as §1

% inhibition | Binder
4% | B4
98% | B5
78% | B6
50% | B8

Target: T2, recombinant human EGFR extracellular …
Assay: SPR (BIAcore 2000); IgG captured on anti-human Fc, soluble monovalent EGFR ECD injected
Protocol: Kinetic analysis of the full length IgG antibodies of the invention was performed on a BIAcore 2000, employing an assay as described in (Canziani, Klakamp, et al. 2004, Anal. Biochem, 325:301-307) allowing measurement of monovalent affinities of whole IgG molecules against soluble antigen. […] The chip surface was regenerated in between cycles by stripping the captured antibody/antigen complexes with a 10 second injection of 100 mM H₃PO₄. […] The association rate constant (ka) and dissociation constant (kd) were evaluated globally from the generated sensograms with the BIA evaluation software 4.1 provided by the manufacturer.

Kd | koff | kon | t1/2 | Binder
29.2 nM | 0.00037 s⁻¹ | 13000 M⁻¹ s⁻¹ | 31.1 min | B4
 |  |  | 0.2 min | B5
26.7 nM | 0.0049 s⁻¹ | 180000 M⁻¹ s⁻¹ | 2.4 min | B6
21.4 nM | 0.0005 s⁻¹ | 24000 M⁻¹ s⁻¹ | 22.9 min | B1
24.2 nM | 0.0028 s⁻¹ | 120000 M⁻¹ s⁻¹ | 4.1 min | B8
